These results are taken from patent publication US20240189352A1.

This assay deals with RAC2^P29L peptide … presented by HLA-A2 (peptide-loaded T2 cells) (human). Nature of the assay: cell-based or functional assay.

B1: RAC2-T001 TCR (TCR)
TCR alpha: GENVEQHPSTLSVQEGDSAVIKCTYSDSASNYFPWYKQELGKGPQLIIDIRSNVGEKKDQRIAVTLNKTAKHFSLHITETQPEDSAVYFCAASMGNAGNMLTFGGGTRLMVKPH
TCR beta: EPEVTQTPSHQVTQMGQEVILRCVPISNHLYFYWYRQILGQKVEFLVSFYNNEISEKSEIFDDQFSVERPDGSNFTLKIRSTKLEDSAMYFCASSETSGASYEQYFGPGTRLTVT
For the molecule B1, the IFNγ production by TCR-transduced T cells (relative) turned out to be 100%.

B2: RAC2-T002 TCR (TCR)
TCR alpha: AQSVTQLGSHVSVSEGALVLLRCNYSSSVPPYLFWYVQYPNQGLQLLLKYTTGATLVKGINGFEAEFKKSETSFHLTKPSAHMSDAAEYFCAVGANNLFFGTGTRLTVIPY
TCR beta: EPEVTQTPSHQVTQMGQEVILRCVPISNHLYFYWYRQILGQKVEFLVSFYNNEISEKSEIFDDQFSVERPDGSNFTLKIRSTKLEDSAMYFCASSEWRGSSYNEQFFGPGTRLTVL
On to B2, for which the IFNγ production by TCR-transduced T cells (relative) is 100%.
